We go through 22 molecules from US20260049138A1 (Chugai, published 2026).

First the molecules themselves.
B1: GLS3000 H27dE one-arm antibody (antibody, human IgG1, kappa, L234A L235A, N297A, name in Kabat numbering)
heavy: QVQLVESGGGVVQPGRSLRLSCAASGFTFSNAWMHWVRQAPGKGLEWVAQIKAKSNNYATYYAESVKGRFTISRDDSKNSLYLQMNSLKTEDTAVYYCRYVHYGAYYGVDAWGQGTTVTVSSASTKGPSVFPLAPSSKSTSGGTAALGCLVKDYFPEPVTVSWNSGALTSGVHTFPAVLQSSGLYSLSSVVTVPSSSLGTQTYICNVNHKPSNTKVDKKVEPKSCDKTHTCPPCPAPEAAGGPSVFLFPPKPKDTLMISRTPEVTCVVVDVSHEDPEVKFNWYVDGVEVHNAKTKPREEQYASTYRVVSVLTVLHQDWLNGKEYKCKVSNKALPAPIEKTISKAKGQPREPQVYTLPPSRCELTKNQVSLSCAVKGFYPSDIAVEWESNGQPENNYKTTPPVLDSDGSFFLVSKLTVDKSRWQQGNVFSCSVMHEALHNHYTQKSLSLSPDYKDDDDK
chain: EPKSSDKTHTCPPCPAPELLGGPSVFLFPPKPKDTLMISRTPEVTCVVVDVSHEDPEVKFNWYVDGVEVHNAKTKPREEQYNSTYRVVSVLTVLHQDWLNGKEYKCKVSNKALPAPIEKTISKAKGQPREPQVCTLPPSRDELTKNQVSLWCLVKGFYPSDIAVEWESNGQPENNYKTTPPVLDSDGSFFLYSKLTVDKSRWQQGNVFSCSVMHEALHNRYTQKSLSLSP
light: DIVMTQSPLSLPVTPGEPASISCRSSQSLVESNRNTYLHWYQQKPGQAPRLLIYKVSNRFSGVPDRFSGSGSGTDFTLKISRVEAEDVGVYYCGQGTQVPYTFGQGTKLEIKRTVAAPSVFIFPPSDEQLKSGTASVVCLLNNFYPREAKVQWKVDNALQSGNSQESVTEQDSKDSTYSLSSTLTLSKADYEKHKVYACEVTHQGLSSPVTKSFNRGEC
B2: GLS3000 H34A one-arm antibody (antibody, human IgG1, kappa, L234A L235A, N297A, name in Kabat numbering)
heavy: B1 heavy
chain: B1 chain
light: B1 light with E31H, H39A
B3: GLS3000 H27dQ one-arm antibody (antibody, human IgG1, kappa, L234A L235A, N297A, name in Kabat numbering)
heavy: B1 heavy
chain: B1 chain
light: B1 light with E31Q
B4: GLS3000 H27dN one-arm antibody (antibody, human IgG1, kappa, L234A L235A, N297A, name in Kabat numbering)
heavy: B1 heavy
chain: B1 chain
light: B1 light with E31N
B5: GLS3000 H27dY one-arm antibody (antibody, human IgG1, kappa, L234A L235A, N297A, name in Kabat numbering)
heavy: B1 heavy
chain: B1 chain
light: B1 light with E31Y
B6: GLS3000 H34I one-arm antibody (antibody, human IgG1, kappa, L234A L235A, N297A, name in Kabat numbering)
heavy: B1 heavy
chain: B1 chain
light: B1 light with E31H, H39I
B7: GLS3000 H34G one-arm antibody (antibody, human IgG1, kappa, L234A L235A, N297A, name in Kabat numbering)
heavy: B1 heavy
chain: B1 chain
light: B1 light with E31H, H39G
B8: GLS3000 H27dP one-arm antibody (antibody, human IgG1, kappa, L234A L235A, N297A, name in Kabat numbering)
heavy: B1 heavy
chain: B1 chain
light: B1 light with E31P
B9: GLS3000 H34E one-arm antibody (antibody, human IgG1, kappa, L234A L235A, N297A, name in Kabat numbering)
heavy: B1 heavy
chain: B1 chain
light: B1 light with E31H, H39E
B10: GLS3000 H27dV one-arm antibody (antibody, human IgG1, kappa, L234A L235A, N297A, name in Kabat numbering)
heavy: B1 heavy
chain: B1 chain
light: B1 light with E31V
B11: GLS3000 H27dI one-arm antibody (antibody, human IgG1, kappa, L234A L235A, N297A, name in Kabat numbering)
heavy: B1 heavy
chain: B1 chain
light: B1 light with E31I
B12: GLS3000 H34F one-arm antibody (antibody, human IgG1, kappa, L234A L235A, N297A, name in Kabat numbering)
heavy: B1 heavy
chain: B1 chain
light: B1 light with E31H, H39F
B13: GLS3000 H27dS one-arm antibody (antibody, human IgG1, kappa, L234A L235A, N297A, name in Kabat numbering)
heavy: B1 heavy
chain: B1 chain
light: B1 light with E31S
B14: GLS3000 H34D one-arm antibody (antibody, human IgG1, kappa, L234A L235A, N297A, name in Kabat numbering)
heavy: B1 heavy
chain: B1 chain
light: B1 light with E31H, H39D
B15: GLS3000 H27dL one-arm antibody (antibody, human IgG1, kappa, L234A L235A, N297A, name in Kabat numbering)
heavy: B1 heavy
chain: B1 chain
light: B1 light with E31L
B16: GLS3000 H27dG one-arm antibody (antibody, human IgG1, kappa, L234A L235A, N297A, name in Kabat numbering)
heavy: B1 heavy
chain: B1 chain
light: B1 light with E31G
B17: GLS3000 H27dF one-arm antibody (antibody, human IgG1, kappa, L234A L235A, N297A, name in Kabat numbering)
heavy: B1 heavy
chain: B1 chain
light: B1 light with E31F
B18: GLS3000 H27dW one-arm antibody (antibody, human IgG1, kappa, L234A L235A, N297A, name in Kabat numbering)
heavy: B1 heavy
chain: B1 chain
light: B1 light with E31W
B19: GLS3000 H27dM one-arm antibody (antibody, human IgG1, kappa, L234A L235A, N297A, name in Kabat numbering)
heavy: B1 heavy
chain: B1 chain
light: B1 light with E31M
B20: GLS3000 H27dR one-arm antibody (antibody, human IgG1, kappa, L234A L235A, N297A, name in Kabat numbering)
heavy: B1 heavy
chain: B1 chain
light: B1 light with E31R
B21: GLS3000 H27dT one-arm antibody (antibody, human IgG1, kappa, L234A L235A, N297A, name in Kabat numbering)
heavy: B1 heavy
chain: B1 chain
light: B1 light with E31T
B22: GLS3000 H27dK one-arm antibody (antibody, human IgG1, kappa, L234A L235A, N297A, name in Kabat numbering)
heavy: B1 heavy
chain: B1 chain
light: B1 light with E31K

Substitutions are numbered along the chain they refer to. In names and notes the source's numbering stands.

The target of this test is T1, CD3ε homodimer protein (human, UniProt P07766 23-126, limits assumed).
T1 construct: also called CD3 (CD3ε)
T1 sequence (P07766 23-126 limits assumed): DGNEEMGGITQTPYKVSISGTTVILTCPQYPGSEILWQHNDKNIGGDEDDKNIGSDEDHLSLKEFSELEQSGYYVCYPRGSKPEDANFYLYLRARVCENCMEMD
Description: SPR Biacore T200, CD3ε homodimer on chip.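 Note: Light-chain single-residue variant antibodies injected over amine-coupled CD3ε homodimer on a CM4 chip at 25 °C, bound amount divided by that of the GLS3000-containing antibody.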 Background: In SPR one partner is held on a chip, and binding of the other changes the refractive index at the surface.
As for B1, the “ratio of amount bound vs unaltered GLS3000” value (“ratio of amount bound” for short) was 0.23.

In the case of B2, the “ratio of amount bound” value is 1.06. For B3, the “ratio of amount bound” value amounted to 0.25. On to B4, for which the “ratio of amount bound” value worked out at 0.3. Turning to B5, the “ratio of amount bound” value was found to be 0.64. Then B6, with 0.65; and B7, with 1.02. As to B8, the “ratio of amount bound” value came out at 0.24.

In the case of B9, the “ratio of amount bound” value was found to be 0.23. Consider B10, for which the “ratio of amount bound” value came to 0.3. As to B11, the “ratio of amount bound” value worked out at 0.26. For B12, the “ratio of amount bound” value was determined as 0.27. For B13, the “ratio of amount bound” value was found to be 0.32. For B14, the “ratio of amount bound” value was found to be 0.22. Turning to B15, the “ratio of amount bound” value came to 0.3.

For the molecule B16, the “ratio of amount bound” value worked out at 0.3.

B17: the “ratio of amount bound” value was determined as 0.63.

In the case of B18, the “ratio of amount bound” value was found to be 0.39. As for B19, the “ratio of amount bound” value was found to be 0.3. With B20, the “ratio of amount bound” value is 0.31.

For B21, the “ratio of amount bound” value is 0.29. Take B22: the “ratio of amount bound” value is 0.29.
